Results taken from publication PMC9239242.

Target: E. coli RNA polymerase holoenzyme (native) (E. coli) (UniProt P0A8V2)

Substance: P2 Orf82 (Orf82 from Enterobacteria phage P2) (natural protein)
- IC50 for inhibition of rrnB P1 transcription, multiround in vitro transcription with E. coli RNAP (4 nM to 2,000 nM factor): 250 nM
